The target of assay [1] is T1, Recombinant human CD8ab protein (extracellular domains of CD8a and CD8b with leucine zippers and tags) (human, UniProt P01732 22-182; P10966 22-170).
T1 construct: extracellular domain; Secreted from HEK293 cells; also called recombinant CD8ab; soluble CD8ab antigen; not shown: acidic leucine zipper; 8x Histidine tag; basic leucine zipper; Strep-tag II
Kind of assay: SPR as in Example 1 (antibody captured, soluble CD8ab as analyte). How it is done:
(§1) Recombinant human CD8ab protein was generated. […] Antibodies were first captured on an anti-hJgG-Fc CM5 or CM4 surface prepared using the Human Antibody Capture Kit (Cytiva). […] Dissociation was monitored for 5-10 minutes, and the anti-hJgG-Fc surface was regenerated with 3M MgCl2 before recapturing mAb in each subsequent cycle. Binding data were analyzed by Biacore T200 Evaluation Software version 3.2 using a 1:1 binding model.

Assay [2] addresses T2, Recombinant CD8b (Sino biological) (human, UniProt P10966 22-170, limits assumed).
T2 construct: also called CD8b alone
Briefly: ELISA, coated recombinant CD8b. How it is done: (§2) Binding specificity of the antibodies was determined by ELISA. […] of recombinant CD8ab, CD8a (Sino biological), CD8b (Sino biological) and ovalbumin (Sigma) or Erb2 (human epidermal growth factor receptor 2) (Sino biological) in PBS were coated onto the maxisorp plate overnight at 4° C. Ovalbumin or Erb2 was used as negative control. Plate was then blocked with casein blocking solution (Thermo Scientific) for 1 hr at room temperature. After blocking, plate was washed with wash buffer (PBS/0.05% Tween-20). Next, dilution of antibody from 30 nM to 0.0009 nM in PBS/0.5% BSA/0.05% Tween-20 was added onto the plate and incubated for 1-2 hr at room temperature. After incubation, plate was washed, and incubated with anti-human IgG (Fc specific)-HRP conjugate or anti-mouse IgG (Fc specific)-HRP conjugate (Jackson Immunoresearch) in PBS/0.5% BSA/0.05% Tween-20 for 1 hr. Binding was detected by adding TMB substrate (SeraCare) to the plate, followed by stopping solution of 0.1M HCl. Binding absorbance was read using GloMax® Discover Microplate Reader (Promega).
For orientation: In an ELISA, binding on a coated surface is turned into a signal by an enzyme label.

Assay [3] concerns the target T3, Recombinant CD8a (Sino biological) (human, UniProt P01732 22-182).
T3 construct: also called CD8a alone
Briefly: ELISA, coated recombinant CD8a, antibody 30 nM to 0.0009 nM. Here is the method: as §2

The target of assay [4] is T1, Recombinant human CD8ab protein …. Kind of assay: ELISA: antigen coated on the plate, antibody titrated, anti-IgG (Fc)-HRP and TMB, A450. Here is the method:
as §2

In assay [5] the target is T3, Recombinant CD8a (Sino biological). The assay is described as above. Here is the method: as §2
The target of assay [6] is T2, Recombinant CD8b (Sino biological). Described as above. How it is done: as §2
Assay [7] has as its target T1, Recombinant human CD8ab protein …. Kind of assay: SPR (Biacore T200, 37 C), antibody captured by anti-human IgG Fc, soluble CD8ab as analyte, 1:1 model. Here is the method: as §1

T1 sequence (P01732 22-182, chain 1 of 2): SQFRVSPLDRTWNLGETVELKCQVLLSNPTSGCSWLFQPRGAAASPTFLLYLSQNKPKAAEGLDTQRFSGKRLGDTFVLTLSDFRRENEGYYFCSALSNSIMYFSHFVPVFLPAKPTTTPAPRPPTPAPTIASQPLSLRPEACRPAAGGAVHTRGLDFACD
T1 sequence (P10966 22-170, chain 2 of 2): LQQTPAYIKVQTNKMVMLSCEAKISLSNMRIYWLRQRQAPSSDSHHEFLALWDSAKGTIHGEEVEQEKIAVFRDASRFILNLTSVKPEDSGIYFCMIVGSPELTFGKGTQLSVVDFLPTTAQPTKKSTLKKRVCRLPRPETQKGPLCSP
T3 sequence (P01732 22-182 limits assumed): as the sequence (P01732 22-182, chain 1 of 2) above
T2 sequence (P10966 22-170 limits assumed): as the sequence (P10966 22-170, chain 2 of 2) above

B1: xhCD8v10 (antibody, human IgG1, V domains shown)
VH: EVQLVESGGGLVQPGGSLRLSCAASGFTFSSYAMSWVRQAPGKGLEWVSDITYAGGSTAYADSVKGRFTISRDNAKNSLYLQMNSLRAEDTAVYYCARSNAYAWDDALDIWGQGTMVTVSS
VL: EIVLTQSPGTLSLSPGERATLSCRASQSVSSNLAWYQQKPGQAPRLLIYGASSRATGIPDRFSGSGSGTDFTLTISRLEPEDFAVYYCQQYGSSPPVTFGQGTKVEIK
notes: Improved version based on xhCD8v6
For orientation: Kd means the free concentration of one partner at which half of the binding sites on the other are occupied at equilibrium, for simple one-to-one binding. A word on the koff: it is a measure of how fast the partners let go of each other. A word on the kon: it is the second-order rate constant of association. With B1, in assay [1], the Kd amounted to 36.4 nM, the koff amounted to 0.00386 s⁻¹ and the kon is 106000 M⁻¹ s⁻¹.

B2: xhCD8v11 (antibody, human IgG1, V domains shown)
VH: EVQLVESGGGLVQPGGSLRLSCAASGFTFSSYAMSWVRQAPGKGLEWVSDITYAGGSTAYADSVKGRFTISRDNAKNSLYLQMNSLRAEDTAVYYCARSNAYAWDDALDIWGQGTLVTVSS
VL: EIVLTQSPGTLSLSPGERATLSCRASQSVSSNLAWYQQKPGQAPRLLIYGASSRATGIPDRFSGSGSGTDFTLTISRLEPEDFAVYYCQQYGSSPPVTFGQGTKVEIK
notes: as for B1
Regarding B2, in assay [1], the Kd amounted to 37.8 nM, the koff was determined as 0.00361 s⁻¹ and the kon came out at 95500 M⁻¹ s⁻¹.

B3: xhCD8v14 (antibody, human IgG1, V domains shown)
VH: EVQLVESGGGLVQPGGSLRLSCAASGFTFSSYAMSWVRQAPGKGLEWVSDISYAGGSTAYADSVKGRFTISRDNAKNSLYLQMNSLRAEDTAVYYCARSNAYAWDDALDIWGQGTMVTVSS
VL: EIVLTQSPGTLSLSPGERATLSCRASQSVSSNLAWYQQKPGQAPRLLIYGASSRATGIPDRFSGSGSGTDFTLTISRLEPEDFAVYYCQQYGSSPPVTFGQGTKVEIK
notes: as for B1
For the molecule B3, in assay [1], the dissociation constant Kd is 52.9 nM, the koff was determined as 0.00855 s⁻¹ and the association rate constant (kon) stood at 162000 M⁻¹ s⁻¹.

B4: xhCD8v15 (antibody, human IgG1, V domains shown)
VH: EVQLVESGGGLVQPGGSLRLSCAASGFTFSSYAMSWVRQAPGKGLEWVSDISYAGGSTAYADSVKGRFTISRDNAKNSLYLQMNSLRAEDTAVYYCARSNAYAWDDALDIWGQGTLVTVSS
VL: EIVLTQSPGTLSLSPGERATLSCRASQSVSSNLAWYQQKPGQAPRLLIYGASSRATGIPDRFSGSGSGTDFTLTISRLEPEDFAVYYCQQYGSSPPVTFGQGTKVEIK
notes: as for B1
B4: in assay [1], the Kd was 94.3 nM, the koff is 0.0175 s⁻¹ and the kon was 186000 M⁻¹ s⁻¹.

B5: xhCD8v13 (antibody, human IgG1, V domains shown)
VH: QVQLVQSGAEVKKPGSSVKVSCKASGGTFSSYAISWVRQAPGQGLEWMGGIIPGYATANYAQKFQGRVTITADESTSTAYMELSSLRSEDTAVYYCARDAAGIRLFADWGQGTLVTVSS
VL: DIQMTQSPSSLSASVGDRVTITCRASQEIYGALNWYQQKPGKAPKLLIYGATNLQSGVPSRFSGSGSGTDFTLTISSLQPEDFATYYCQSTYDAPWTFGGGTKVEIK
notes: Improved version based on xhCD8v2
In the case of B5, in assay [2], the binding result is recorded as “binds”. The binding result in assay [3] was “no binding (tested: 30 nM)”. Also, in assay [1], the dissociation constant Kd came to 81.8 nM, the koff was 0.0301 s⁻¹ and the association rate constant (kon) amounted to 368000 M⁻¹ s⁻¹.

B6: xhCD8v12 (antibody, human IgG1, V domains shown)
VH: QVQLVQSGAEVKKPGSSVKVSCKASGGTFSSYAISWVRQAPGQGLEWMGGIIPGYATANYAQKFQGRVTITADESTSTAYMELSSLRSEDTAVYYCARDAAGIRLFADWGQGTLVTVSS
VL: DIQMTQSPSSLSASVGDRVTITCRASQSIYGALNWYQQKPGKAPKLLIYGASNLQSGVPSRFSGSGSGTDFTLTISSLQPEDFATYYCQSTYTAPWTFGGGTKVEIK
notes: as for B5
The term EC50 (read off the curve) denotes the concentration that produces a half-maximal response. For B6, in assay [1], the Kd was 105 nM, the off-rate (koff) was determined as 0.0271 s⁻¹ and the kon worked out at 259000 M⁻¹ s⁻¹. In assay [4], the half-maximal effective concentration (EC50 (read off the curve)) is approximately 0.02 nM. The binding result in assay [5] is on record as “no binding (tested: 30 nM)”. The “EC50 (read off the curve)” value in assay [6] was approximately 0.05 nM.

B7: xhCD8v4 (antibody, human IgG1, V domains shown)
VH: QVQLVQSGAEVKKPGSSVKVSCKASGYTFTKYAISWVRQAPGQGLEWMGGIIPGHAKANYAQKFQGRVTITADESTSTAYMELSSLRSEDTAVYYCARDGLGIRLFADWGQGTLVTVSS
VL: DIQMTQSPSSLSASVGDRVTITCRASQKIYGALNWYQQKPGKAPKLLIYGATNLQSGVPSRFSGSGSGTDFTLTISSLQPEDFATYYCQNTYDTPWTFGGGTKVEIK
With B7, in assay [2], the binding result is “binds”. The binding result in assay [3] is “no binding (tested: 30 nM)”. Besides, in assay [7], the dissociation constant Kd turned out to be 137 nM, the koff turned out to be 0.0493 s⁻¹ and the kon turned out to be 360000 M⁻¹ s⁻¹.

B8: xhCD8v3 (antibody, human IgG1, V domains shown)
VH: QVQLVQSGAEVKKPGSSVKVSCKASGSRFYKFAISWVRQAPGQGLEWMGGIIPGHAKANYAQKFQGRVTITADESTSTAYMELSSLRSEDTAVYYCARDGLGIRLFADWGQGTLVTVSS
VL: DIQMTQSPSSLSASVGDRVTITCRASQEIYGALNWYQQKPGKAPKLLIYGATNLQSGVPSRFSGSGSGTDFTLTISSLQPEDFATYYCQDIYDAPWTFGGGTKVEIK
For the molecule B8, the binding result in assay [2] is given as “binds”. For the same molecule, the binding result in assay [3] is listed as “no binding (tested: 30 nM)”. For the same molecule, in assay [7], the Kd was 72.3 nM, the dissociation rate constant (koff) was determined as 0.0379 s⁻¹ and the kon was 524000 M⁻¹ s⁻¹.

B9: xhCD8v5 (antibody, human IgG1, V domains shown)
VH: QVQLVQSGAEVKKPGSSVKVSCKASGSGFRGHAISWVRQAPGQGLEWMGGIIPGHAKANYAQKFQGRVTITADESTSTAYMELSSLRSEDTAVYYCARDGLGIRLFADWGQGTLVTVSS
VL: DIQMTQSPSSLSASVGDRVTITCRASQKIYGALNWYQQKPGKAPKLLIYGATNLQSGVPSRFSGSGSGTDFTLTISSLQPEDFATYYCQNTYDTPWTFGGGTKVEIK
For B9, the binding result in assay [2] is listed as “binds”. For the same molecule, the binding result in assay [3] is “no binding (tested: 30 nM)”. Besides, in assay [7], the Kd is 117 nM, the koff was found to be 0.0419 s⁻¹ and the on-rate (kon) is 357000 M⁻¹ s⁻¹.

B10: xhCD8v9 (antibody, human IgG1, V domains shown)
VH: QVQLVQSGAEVKKPGSSVKVSCKASGGTFSSYAISWVRQAPGQGLEWMGGIIPGAATANYAQKFQGRVTITADESTSTAYMELSSLRSEDTAVYYCARDAAGIRLFADWGQGTLVTVSS
VL: DIQMTQSPSSLSASVGDRVTITCRASQEIYGALNWYQQKPGKAPKLLIYGATNLQSGVPSRFSGSGSGTDFTLTISSLQPEDFATYYCQSTYDAPWTFGGGTKVEIK
notes: as for B5
For the molecule B10, in assay [2], the binding result is “binds”. Further, the binding result in assay [3] is “no binding (tested: 30 nM)”. Further, in assay [1], the Kd stood at 121 nM, the off-rate (koff) worked out at 0.0273 s⁻¹ and the kon was found to be 225000 M⁻¹ s⁻¹.

B11: xhCD8v2 (antibody, human IgG1, V domains shown)
VH: QVQLVQSGAEVKKPGSSVKVSCKASGYRFHNFAISWVRQAPGQGLEWMGGIIPGHAKANYAQKFQGRVTITADESTSTAYMELSSLRSEDTAVYYCARDGLGIRLFADWGQGTLVTVSS
VL: DIQMTQSPSSLSASVGDRVTITCRASQEIYGALNWYQQKPGKAPKLLIYGATNLQSGVPSRFSGSGSGTDFTLTISSLQPEDFATYYCQDIYDAPWTFGGGTKVEIK
Turning to B11, the “EC50 (read off the curve)” value in assay [4] is approximately 0.03 nM. For the same molecule, the binding result in assay [5] is listed as “no binding (tested: 30 nM)”. For the same molecule, in assay [6], the concentration giving a half-maximal response (EC50 (read off the curve)) was approximately 0.06 nM. In assay [7], the dissociation constant (Kd) turned out to be 41.6 nM, the koff is 0.02 s⁻¹ and the kon was determined as 483000 M⁻¹ s⁻¹.
